Reference: paper PMC9783754 (International Journal of Molecular Sciences, 2022)
Where a chain is given by its changes, count along the chain named.

B1: Recombinant human S100A11 (natural protein, UniProt P31949 1-105, looked up)
chain: MAKISSPTETERCIESLIAVFQKYAGKDGYNYTLSKTEFLSFMNTELAAFTKNQKDPGVLDRMMKKLDTNSDGQLDFSEFLNLIGGLAMACHDSFLKAVPSQKRT
notes: S100A11, human, UniProt ID P31949 (printed in the methods of the database search); mainly dimeric by cross-linking at 4 µM; source: E. coli, purified as previously described
B2: Recombinant human S100A12 (natural protein, UniProt P80511 1-92, looked up)
chain: MTKLEEHLEGIVNIFHQYSVRKGHFDTLSKGELKQLLTKELANTIKNIKDKAVIDEIFQGLDANQDEQVDFQEFISLVAIALKAAHYHTHKE
notes: S100A12, human, UniProt ID P80511 (printed in the methods of the database search); monomer and dimer by cross-linking at 4 µM; source: E. coli, purified as previously described
B3: Recombinant human S100A13 (natural protein, UniProt Q99584 1-98, looked up)
chain: MAAEPLTELEESIETVVTTFFTFARQEGRKDSLSVNEFKELVTQQLPHLLKDVGSLDEKMKSLDVNQDSELKFNEYWRLIGELAKEIRKKKDLKIRKK
notes: S100A13, human, UniProt ID Q99584 (printed in the methods of the database search); source: E. coli, purified as previously described
B4: Recombinant human S100A16 (natural protein, UniProt Q96FQ6 1-103, looked up)
chain: MSDCYTELEKAVIVLVENFYKYVSKYSLVKNKISKSSFREMLQKELNHMLSDTGNRKAADKLIQNLDANHDGRISFDEYWTLIGGITGPIAKLIHEQEQQSSS
notes: S100A16, human; Ca2+-loaded in the assay; source: E. coli, purified as previously described
B5: Recombinant human S100P (natural protein, UniProt P25815 1-95, looked up)
chain: MTELETAMGMIIDVFSRYSGSEGSTQTLTKGELKVLMEKELPGFLQSGKDKDAVDKLLKDLDANGDAQVDFSEFIVFVAAITSACHKYFEKAGLK
notes: S100P, human; Ca2+-loaded in the assay; source: E. coli, purified as previously described
B6: Recombinant human S100A8 (natural protein, UniProt P05109 1-93, looked up)
chain: MLTELEKALNSIIDVYHKYSLIKGNFHAVYRDDLKKLLETECPQYIRKKGADVWFKELDINTDGAVNFQEFLILVIKMGVAAHKKSHEESHKE
notes: S100A8, human; Ca2+-loaded in the assay; source: E. coli, purified as previously described
B7: Recombinant human S100A14 (natural protein, UniProt Q9HCY8 1-104, looked up)
chain: MGQCRSANAEDAQEFSDVERAIETLIKNFHQYSVEGGKETLTPSELRDLVTQQLPHLMPSNCGLEEKIANLGSCNDSKLEFRSFWELIGEAAKSVKLERPVRGH
notes: S100A14, human; Ca2+-loaded in the assay; source: E. coli, purified as previously described
B8: Recombinant human S100B (natural protein, UniProt P04271 1-92, looked up)
chain: MSELEKAMVALIDVFHQYSGREGDKHKLKKSELKELINNELSHFLEEIKEQEVVDKVMETLDNDGDGECDFQEFMAFVAMVTTACHEFFEHE
notes: S100B, human; Ca2+-loaded in the assay; source: E. coli, purified as previously described
B9: Recombinant human S100A4 (natural protein)
chain: not shown
notes: S100A4, human; Ca2+-loaded in the assay; source: E. coli, purified as previously described
B10: Recombinant human S100A2 (natural protein)
chain: not shown
notes: S100A2, human; Ca2+-loaded in the assay; source: E. coli, purified as previously described
B11: Recombinant human S100A7 (natural protein, UniProt P31151 1-101, looked up)
chain: MSNTQAERSIIGMIDMFHKYTRRDDKIEKPSLLTMMKENFPNFLSACDKKGTNYLADVFEKKDKNEDKKIDFSEFLSLLGDIATDYHKQSHGAAPCSGGSQ
notes: S100A7, human; Ca2+-loaded in the assay; source: E. coli, purified as previously described
B12: Recombinant human S100A15 (natural protein, UniProt Q86SG5 1-101, looked up)
chain: B11 chain with R22G, D25G, T52I, N53H, D57T, T84A
notes: Ca2+-loaded in the assay; source: E. coli, purified as previously described
B13: Recombinant human S100A3 (natural protein, UniProt P33764 1-101, looked up)
chain: MARPLEQAVAAIVCTFQEYAGRCGDKYKLCQAELKELLQKELATWTPTEFRECDYNKFMSVLDTNKDCEVDFVEYVRSLACLCLYCHEYFKDCPSEPPCSQ
notes: S100A3, human; Ca2+-loaded in the assay; source: E. coli, purified as previously described
B14: Recombinant human S100A5 (natural protein, UniProt P33763 1-92, looked up)
chain: METPLEKALTTMVTTFHKYSGREGSKLTLSRKELKELIKKELCLGEMKESSIDDLMKSLDKNSDQEIDFKEYSVFLTMLCMAYNDFFLEDNK
notes: S100A5, human; Ca2+-loaded in the assay; source: E. coli, purified as previously described
B15: Recombinant human S100A9 (natural protein, UniProt P06702 1-114, looked up)
chain: MTCKMSQLERNIETIINTFHQYSVKLGHPDTLNQGEFKELVRKDLQNFLKKENKNEKVIEHIMEDLDTNADKQLSFEEFIMLMARLTWASHEKMHEGDEGPGHHHKPGLGEGTP
notes: S100A9, human; Ca2+-loaded in the assay; source: E. coli, purified as previously described

The binders below were run against T1, Recombinant human sTNF (soluble form of tumor necrosis factor) (human, UniProt P01375 77-233) (assay: SPR; ligand (50 μg/mL sTNF or TNF-β) immobilised on a ProteOn GLH chip by amine coupling; chip flushed with running buffer for two days and several times with 10 mM glycine pH 3.3 to dissociate sTNF multimers (monomeric sTNF); Ca2+-loaded S100 protein as analyte, 10 nM–2 µM; 25 °C; 10 mM HEPES, 150 mM NaCl, 1 mM CaCl2, 0.05% TWEEN 20, pH 7.4; heterogeneous ligand model). Conditions: both partners purified.
T1 construct: additional N-terminal methionine, stated in words; tumor necrosis factor, human, soluble form (157 residues), residues 77-233 of UniProt entry P01375; Monomeric on the SPR chip after long flushing and glycine pH 3.3 washes; multimeric in solution in the fluorimetric titrations and cross-linking; also called TNF-α; TNF ligand superfamily member 2; source: bought: Prospec-Tany Technogene (catalog # …)
T1 sequence (P01375 other isoform, or with tags, fused parts or gaps): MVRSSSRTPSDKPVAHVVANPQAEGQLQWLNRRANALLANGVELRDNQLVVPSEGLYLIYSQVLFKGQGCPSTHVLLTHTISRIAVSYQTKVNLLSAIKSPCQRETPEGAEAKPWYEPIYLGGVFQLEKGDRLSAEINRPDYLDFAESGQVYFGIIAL

Binder	Kd1 (KD, ligand population 1) [nM]	Kd2 (KD, ligand population 2) [nM]	kd1 (koff, ligand population 1) [s⁻¹]	kd2 (koff, ligand population 2) [s⁻¹]
B1	28	695	0.00018	0.0084
B2	2.3	8.4	0.0018	0.0023
B3	2.4	4.3	0.0009	0.0073

Target: the molecule itself
Test: cross-linking; 4 µM sTNF and/or S100 protein (sTNF to S100 1:0, 0:1, 1:0.5, 1:1, 1:2), 20 mM EDAC and 5 mM sulfo-NHS, 25 °C, 1.5 h; 10 mM HEPES, 150 mM NaCl, pH 7.4 with 1 mM CaCl2; SDS-PAGE with silver staining
Conditions: not given

Binder	stoichiometry N
B1	2
B2	2

Each binder was assayed against T1, Recombinant human sTNF (soluble form of …) (assay: other fluorescence titration; 280 nM (S100A11) or 0.5 µM (S100A12) multimeric sTNF titrated by Ca2+-bound S100 protein; Trp fluorescence of sTNF, excitation 295/298 nm, intensity at 325 nm; 25 °C; 10 mM HEPES-NaOH, 150 mM NaCl, 1 mM CaCl2, pH 7.4; single site binding model; apparent). Conditions: both partners purified.

Binder	Kd [nM]	stoichiometry N
B1	104 ± 23	1
B2	348 ± 50	1

Target: T1, Recombinant human sTNF (soluble form of …)
Test: SPR; ligand (50 μg/mL sTNF or TNF-β) immobilised on a ProteOn GLH chip by amine coupling; chip flushed with running buffer for two days and several times with 10 mM glycine pH 3.3 to dissociate sTNF multimers (monomeric sTNF); Ca2+-loaded S100 protein as analyte, 10 nM–2 µM; 25 °C; 10 mM HEPES, 150 mM NaCl, 1 mM CaCl2, 0.05% TWEEN 20, pH 7.4; heterogeneous ligand model
Conditions: both partners purified
Remark: another data set of the same source

Binder	Kd [nM]
B4	> 100000
B5	> 100000
B6	> 100000
B7	> 100000
B8	> 100000
B9	> 100000
B10	> 100000
B11	> 100000
B12	> 100000
B13	> 100000
B14	> 100000
B15	> 100000
